Laboratory results from patent publication US8003345B2, “Antioxidant pharmaceutical compound, method for producing polypeptide and method of cure” (Institute of Cell Biophysics Russian Academy of Sciences, priority 2002, dated 2011).

Legend:
[1] = test system: T-lymphocytes from the spleen of line NRRI rats stimulated with concavalin A; assay: Proliferation of concanavalin A-stimulated T-lymphocytes (3H-thymidine inclusion); format: cell-based; details: 0.1-1.0 mg/ml concentration, against cells stimulated only with concavalin A
Experimental: (§1) The cytotoxicity is determined from the influence of recombinant Prx V1hum or of natural rat Prx V1rat on the level of proliferation of line L929 human lymphoblastoma cells and of T-lymphocytes from the spleen of line NRRI rats stimulated with concavalin A.
(§2) Cells of two lines with the concentration of 10^4 cells/ml medium were cultivated in RPMI 1640 containing 5% of bovine fetal serum. The stimulation of T-lymphocytes was carried out with the 0.1 μg/ml concentration of concavalin. In the case of T-lymphocytes the proliferation level was determined from the inclusion of ^3H-thymidine. The number of live line L929 cells was determined in a 96-cell plate with the aid of a Trypan stain, followed by scanning on a Multiscan multichannel photometer (LKB, Sweden).

[2] = test system: oxyhemoglobin; assay: Protection of oxyhemoglobin from the action of ionizing radiation; format: biochemical; details: about 50 μg/ml added before irradiation; 10 Gy; registered at 635 nm
Description: The antiradiation properties of Prx Vlhum are investigated both in vitro, by investigating a solution of hemoglobin, and in vivo on animals. Irradiation of a solution of hemoglobin (see Example 10) leads to essential changes in its structure (appearance of peaks at 635 nm and an increase of light scattering), this being indicative of conversion of oxyhemoglobin to methemoglobin, followed by the aggregation thereof.
For checking the possibility of protecting biological macromolecules from destruction caused by ionizing radiation with the aid of peroxiredoxin, we have investigated the characteristics of irradiated oxyhemoglobin in control and in the presence of peroxiredoxin. In control we used a solution of oxyhemoglobin (0.16 D at 540 nm) in 0.1 M of Tris-HCl (pH 7.0) which was irradiated in a GUBE apparatus with the total exposure dose of 10 Gy. As the radioprotector peroxiredoxin Prx V1hum was used in different concentrations (5-100 μg/ml) in the presence of 50 μM of dithiothreitol. The formation of oxidized forms of oxyhemoglobin (methemoglobin) was registered at 635 nm, and aggregation of methemoglobin was registered at 700 nm.

[3] = Cytotoxicity: number of live line L929 cells; format: cell-based, human; details: 0.1-10 μg/ml concentration; Trypan stain
Experimental: as §1, §2

[4] = Distribution of labeled peroxiredoxin in the organism after intravenous injection; format: in vivo, rat; details: 10 mg per animal, fluorescein-labeled
Experimental: For detecting the distribution of exogenous peroxiredoxin Prx VI in different tissues of the organism, a recombinant Prx V1hum labeled with fluorescein isocyanate was introduced into the rat's vein in an amount of 10 mg per animal. After definite periods of time the animals were sacrificed, the tissues of different organs were isolated, and luminescent analysis of the obtained samples was carried out. […] Thus, the method of introducing peroxiredoxin Prx VI by intravenous injection makes it possible to increase its content in almost all the tissues of the organism.

[5] = test system: tracheal epithelium of rat after burn with vapors of hydrochloric acid; assay: Chemical burn (HCl vapors) of the upper respiratory tract of rat; format: in vivo
Experimental: The therapeutic properties of recombinant peroxiredoxin Prx V1hum in treating the upper respiratory tract of rat 24 hours after a burn were tested on a group of 4 Wistar line rats having a weight of 150-200 grams. The rats were analgized with analgin (100 mg/kg weight) and placed for 10 minutes into an exsiccator saturated with HCl vapors (the exsiccator volume was 10 liters, 20 animals were used). After the chemical burn, the rats were maintained for a definite period of time (40 min, 6 hrs, 1 day, 2 days, 14 days, 30 days), then narcotized with hexenal (300 mg/kg weight), and a sample of the tracheal epithelial tissue was isolated. For histochemical investigations the isolated sample was placed into a fixing solution containing 2% of formaldehyde and 0.5% of glutaraldehyde. The tissue was dehydrated .by sequential routing through ethyl alcohol with increasing concentration (40-100%). The tissue was embedded into LR white resin. The resin was polymerized at room temperature. 0.5 em-thick sections were made on an LKB ultratome (Sweden), using glass knives. The sections were stained with a hematoxylin-eosine and analyzed under a light microscope.
Maximum degradation of the epithelium is observed 24 hours after the burn, the ciliated cells which provide the mucus flow in the trachea being almost absent. Two weeks later a partial restoration of the ciliated cells is observed. […]

[6] = test system: glutamine synthetase of E.coli; details: DTT/Fe3+/O2 oxidative system, 3 mM activator, 10 min at 37° C.; FIG. 3
Experimental: Comparison of the protector properties of recombinant full-size Prx Vlhum with the protector properties of natural rat Prx VIrat and with the protector properties of N-terminal ΔPrx V1hum in terms of protecting glutamine synthetase of E.coli from inactivation in a model oxidative system in vitro.
For determining the activity of different types of peroxiredoxins, their ability to protect glutamine synthetase from the DTT/Fe^+3/O2 oxidative system is measured. Glutamine synthetase is isolated from cells of the E.coli DH5α strain (Streicher S. L., Tyler B., 1980) and inactivated in the presence of a Fe^3+/O2 oxidative system and a peroxiredoxin activator—in the model oxidative system generating free radicals (Kim K. et al., 1988). […] The residual activity of glutamine synthetase is assessed by adding to the sample 200 μl of a reaction mixture which comprises: ADP, 0.4 mM; glutamine, 150 mM; K—AsO4, 10 mM; NH2OH, 20 mM; MnCl2, 0.4 mM; HEPES, 100 mM, pH 7.4. […] The protector properties of peroxiredoxin for protecting glutamine synthetase of E.coli from inactivation are determined as the ratio of the remaining activity of the enzyme after the inactivation in the presence of different concentrations of peroxiredoxin to the activity of non-inactivated glutamine synthetase.

B1: Prx VIhum: recombinant full-size human peroxiredoxin Prx VI, 224 amino acids (SEQ ID NO: 1), produced in E.coli (protein)
chain: MPGGLLLGDVAPNFEANTTVGRIRFHDFLGDSWGILFSHPRDFTPVCTTELGRAAKLAPEFAKRNVKLIALSIDSVEDHLAWSKDINAYNCEEPTEKLPFPIIDDRNRELAILLGMLDPAEKDEKGMPVTARVVFVFGPDKKLKLSILYPATTGRNFDEILRVVISLQLTAEKRVATPVDWKDGDSVMVLPTIPEEEAKKLFPKGVFTKELPSGKKYLRYTPQP
Q: With B1 as the molecule, how does the “cell proliferation level of T-lymphocytes stimulated with concavalin A” value [1] read?
A: increased approximately twofold

Q: And the “concentration of oxidized forms of hemoglobin” value [2]?
A: lowered almost to zero

Q: And the “effect on the number of live line L929 cells” value [3]?
A: did not produce any effect

Q: And the distribution among organs ([4]; 15 minutes after intravenous injection, luminescent analysis)?
A: uniformly distributes among all the organs of the rat, including the brain

Q: And the “amount in bone marrow” value ([4]; after intravenous injection)?
A: small, compared with other tissues

Q: And the “regeneration of tracheal epithelium (curative effect)” value ([5]; 14 days after burn, application started 24 hours after burn, once a day during 5 days, FIG. 7)?
A: almost complete regeneration of the ciliary cells of the epithelium

Q: What about the “preservation of tracheal epithelial cells (protector effect)” value ([5]; application 1 hour after the burn, epithelium 24 hours after chemical burn, FIG. 6) of the same molecule?
A: Almost complete preservation of all epithelial cells

Q: And the “protector properties: antioxidant characteristics in protecting glutamine synthetase from inactivation” value [6]?
A: close to the natural rat peroxiredoxin Prx VIrat
